assay: soluble on expression in E. coli; label from the status in PepcDB or PDB records

Q: For “MSLLLFEQPVDLEKNNEDDTNIKPFAISRHFLLKLLLCGIILIELLLYSKCPKPIDNGPRTIANRSNTYFNGTHDFKTLTILISIDGFHPRLIDAKYTPFLYNLHNLRSPYDMNITTAPYMIPSFPTQTFPNHWSMVTGKYPIEHGIVSNIFWDNFTSSEFRPNNLDARIWSNTADPIWQLLQTESQGEYKVATHMWPGSEVVYEDHGDVPRERMPFYFGKFNQWEKLQDKLAQIFRYIDMPQLKDRPELVISYIPNVDSYGHSFGYDLRDKRLQKLIGEVDGFFLDLIEGLQKRNLLKISNVMIVSDHGMSNVNANDGEHVVVWERVFPADAMSAFISHLYNEGPMMMVCLKNPRDKQWICDLIEAQLEKAYGDEISRKFHVILKEDFDPSWKYFQYDNRKHRYDDRVGDIWILADEYYAIVKEMGDVPIGIMGTHGYNFNNCSDMASIFIGMGPMFNNEVVPPFENIEVYNMLIKASALLGEEKTKKEKSLLQEGHHHHHH”, which “soluble on expression in E. coli” value is on record?
A: not soluble

Q: Which “soluble on expression in E. coli” value does the source give for “MTDHSIRSRALGAYLGLACGDALGATVEFLTKGEIAHQYGVHKHIKGGGWLKLPAGQVTDDTEMSIHLGRAILAAPEWDARRAAEEFAVWLKGVPVDVGDTTRRGIRRFIMHGTLSEPESEYHAGNGAAMRNLPVALATLGDDAAFERWTVEQAHITHCNAMSDAATLTLGHMVRRLVLGGDVRDVRDESNKLIAKHRQFKFQPYRGLATAYIVDTMQTVMHYYFQTDSVESCVVETVNQGGDADTTGAIAGMLAGATYGVETIPPRWLRKLDRDVYNEICAQVDGLLARAPALKQG” here?
A: soluble

Q: Which “soluble on expression in E. coli” value does the source give for “MKELKQAEQIRTWVQSILTDESSGHDWHHVSRVADLAAYIGEKEKADLFIVETAALVHDLIDVKLPDTVRLSVSEVYDQLVFFGVGKENADRVIHIITRMSFRDRGKLAKEPLSIEGKAVQDADRLDAIGAVGIARAFMFAGAKGHGLYGDEQSAYAHFFHKLLRLKDMMNTDTARELAEERHNFMLQFVRQLEKDIPGIDAETS” here?
A: not soluble

Q: Which “soluble on expression in E. coli” value does the source give for “MSLDDFCNIPKGKEVVFGFNVPQSGAYADEGMDELKAYQLAVKHLNGEGDGGMLKTMKPLALKGNGVLGKKVTFVSGDTQTKADQARATAKRMIEKDGAIMITGGSSSAEAVAVQSLCQDVGVIFMAGLTHSNDTTGKDKRAYGFRHFFNAYMSGVALGPVLAEAYGKDRAAYHLTADYTWGWTQEESMKDATEKQGWKTVKAVRTPLGAADFSQYITPVLNSGADVLILNHYGKDMINSLTQAVQFGLRDKMANGKKFEIVVPLFSELMAQGAGDAIKGIYGTANWDWKLEDAATSAFTKSFGAAYGTPPSQAAQTCYVQAILYADAVERAGTFNPSKVIAALEGFEFDGLGNGKTLYRAADHQCFKDVLVVQGKEKPKDKFDLLEVKKIVPASQVTYDPSIFGGELGSKDAKAEGHHHHHH” here?
A: soluble

Q: Which “soluble on expression in E. coli” value does the source give for “EVPDLPEEPSETAEEVVTVALRCPNGRVLRRRFFKSWNSQVLLDWMMKVGYHKSLYRLSTSFPRRALEVEGGSSLEDIGITVDTVLNVEEKEQSSQ” here?
A: soluble

Q: For “MMPTEYPATAEESVDVITDALLTASRLLVAISAHSIAQVDENITIPQFRTLVILSNHGPINLATLATLLGVQPSATGRMVDRLVGAELIDRLPHPTSRRELLAALTKRGRDVVRQVTEHRRTEIARIVEQMAPAERHGLVRALTAFTEAGGEPDARYEIE”, which “soluble on expression in E. coli” value is on record?
A: soluble

Q: For “MKLAVAGKGGVGKTTVAAGLIKIMASDYDKIYAVDGDPDSCLGQTLGLSIEEAYAITPLIEMKDEIREKTGDGGLLILNPKVDGDLDKYGRYIDDKIFLIRMGEIKKGGSQCYCRENSFLGSVVSALFLDKKEAVVMDMGAGIEHLTRGTAKAVDMMIAVIEPNLNSIKTGLNIEKLAGDLGIKKVRYVINKVRNIKEEKLIKKHLPEDKILGIIPYNELFIELSLKGEEIWQSTNPAFVNLHDIYQKLRLEVG”, which “soluble on expression in E. coli” value is on record?
A: soluble

Q: For “ISEFMSDITVTNWAGNITYTAKELLRPHSLDALRALVADSARVRVLGSGHSFNEIAEPGDGGVLLSLAGLPSVVDVDTAARTVRVGGGVRYAELARVVHARGLALPNMASLPHISVAGSVATGTHGSGVGNGSLASVVREVELVTADGSTVVIARGDERFGGAVTSLGALGVVTSLTLDLEPAYEMEQHVFTELPLAGLDPATFETVMAAAYSVSLFTDWRAPGFRQVWLKRRTDRPLDGFPYAAPAAEKMHPVPGMPAVNCTEQFGVPGPWHERLPHFRAEFTPSSGAELQSEYLMPREHALAALHAMDAIRETLAPVLQTCEIRTVAADAQWLSPAYGRDTVAAHFTWVEDTAAVLPVVRRLEEALVPFAARPHWGKVFTVPAGELRALYPRLADFGALAGALDPAGKFTNAFVRGVLAG”, which “soluble on expression in E. coli” value is on record?
A: soluble

Q: With “GSHMTREMRILILGLDGAGKTTILYRLQVGEVVTTIPTIGFNVETVTYKNLKFQVWDLGGLTSIRPYWRCYYSNTDAVIYVVDSCDRDRIGISKSELVAMLEEEELRKAILVVFANKQDMEQAMTSSEMANSLGLPALKDRKWQIFKTSATKGTGLDEAMEWLVETLKSRQ” as the sequence, how does the “soluble on expression in E. coli” value read?
A: soluble

Q: For “MGSDKIHHHHHHMTKRAYQYRFYPTPEQAQLLARTFGCVRFVYNAVLRYRTDAFYQRQERIGYVEANAYLTRMKKADETAFLNEVSSVPLQQCLRHQQAAFKHFFEGRARYPAFKNKRHRQAAEFTRSAFKYRNGQLFLAKCKEPLAIRWSRELPSEPTTITISKDSAGRYFVSCLCEFTPETLPVTPRMTGIDLGLKDLFITDQGERIGNPRHTAKYAARLAKAQRRLSKKKLGSANRAKARKRVARLHAKISDCRMDRLHKLSRRLINENQVVCVESLKVKNMLRNPSLAKAIADAGWGEFARQLEYKAQWAGRQLVRIDPWYPSSKRCSDCGHIKDALPLSVRAWDCPACGVTHDRDINAARNIKAAGLAVLALGENVSGMEPVSVSGSR”, which “soluble on expression in E. coli” value is on record?
A: not soluble

Q: For “MAHHHHHHMGTLEAQTQGPGSMSVSAAPSATSIDRYRRITKLGEGTYGEVYKAIDTVTNETVAIKRIRLEHEEEGVPGTAIREVSLLKELQHRNIIELKSVIHHNHRLHLIFEYAENDLKKYMDKNPDVSMRVIKSFLYQLINGVNFCHSRRCLHRDLKPQNLLLSVSDASETPVLKIGDFGLARAFGIPIRQFTHEIITLWYRPPEILLGSRHYSTSVDIWSIACIWAEMLMKTPLFPGDSEIDQLFKIFEVLGLPDDTTWPGVTALPDWKQSFPKFRGKTLKRVLGALLDDEGLDLLTAMLEMDPVKRISAKNALEHPYFSHNDFDP”, which “soluble on expression in E. coli” value is on record?
A: soluble

Q: Which “soluble on expression in E. coli” value does the source give for “MSLKALINGTIYTSFNPLKKVSGLVISHGKVIYAGDSEVAKKIVELSGGEIVDLKGKYVMPAFFDSHLHLDELGMSLEMVDLRGAKSIEELIQRLKRGKGRIIFGFGWDQDELGEWPTRKELNAIDKPVFIYRKCFHVAVANDKMLELLNLTPSKDFDEDTGIIKEKSLEEARKVINERVLTVEDYVYYIKRAQEHLLDLGVKSVSFMSVNEKALRALFYLEREGKLSINVFAYVTPEVLDKLESIGLGRFQGNRLTIAGVKLFTDGSLGARTALLSKPYSDDPSTSGQLVMEREELIRITEKARSLGLDVAIHAIGDKALDVALDVFETTGFPGRIEHASLVRDDQLERVKNLKVRLSVQPHFIISDWWIVERVGEERVKWVYRFKDLMKVAELGFSTDSPIEPADPWLTVDAAVNRGKGKVKLYELTKDQALDIKDALHSYTYGSARVSLASDIGKLEPGFKAEYIILDRDPLVVKEGHHHHHH” here?
A: soluble

Q: Which “soluble on expression in E. coli” value does the source give for “MGSDKIHHHHHHLKAAIVTHLDQAPIYGDFPAPKPAPKQVLITVLASSVNQRVRSQADGSHYTKTPELPFIPGLDGVGRTSDGQLVYFLTRDPKFGALAEQTVTQQQLMFPLPEDADPAQIAASVNPAMAGWMALRVKAGQVVGKRVLVLGATGAAGTAAVQIAKTMGAAHVAGVGRNPDKLAALSDLGADTTVQLGDTAALAALPPADIVLDFLWGAPSATVMMTLLKARRDHAAKLIWIEIGGAAGPTLSLPAAALRSTGLTLVGSGQGSLTLADYQRELPALFTALTAGKFVTPTTVLSLSQVHDHWQDRGAARLVFQP” here?
A: not soluble

Q: With “SMVRLKKSFGQHLLVSEGVLKKIAEELNIEEGNTVVEVGGGTGNLTKVLLQHPLKKLYVIELDREMVENLKSIGDERLEVINEDASKFPFCSLGKELKVVGNLPYNVASLIIENTVYNKDCVPLAVFMVQKEVAEKLQGKKDTGWLSVFVRTFYDVNYVMTVPPRFFVPPPKVQSAVIKLVKNEKFPVKDLKNYKKFLTKIFQNRRKVLRKKIPEELLKEAGINPDARVEQLSLEDFFKLYRLIEDSGE” as the sequence, how does the “soluble on expression in E. coli” value read?
A: soluble
